The supplement of paper PMC11908140

B1: library; numbered along this chain (parent)
chain: MRKPRAAVGSGHRKQAASQEGRQKHAKNNSQAKPSACDGLARQPEEVVLQASVSSYHLFRDVAEVTAFRGSLLSWYDQEKRDLPWRRRAEDEMDLDRRAYAVWVSEVMLQQTQVATVINYYTGWMQKWPTLQDLASASLEEVNQLWAGLGYYSRGRRLQEGARKVVEELGGHMPRTAETLQQLLPGVGRYTAGAIASIAFGQATGVVDGNVARVLCRVRAIGADPSSTLVSQQLWGLAQQLVDPARPGDFNQAAMELGATVCTPQRPLCSQCPVESLCRARQRVEQEQLLASGSLSGSPDVEECAPNTGQCHLCLPPSEPWDQTLGVVNFPRKASRKPPREESSATCVLEQPGALGAQILLVQRPNSGLLAGLWEFPSVTWEPSEQLQRKALLQELQRWAGPLPATHLRHLGEVVHTFSHIKLTYQVYGLALEGQTPVTTVPPGARWLTQEEFHTAAVSTAMKKVFRVYQGQQPGTCMGSKRSQVSSPCSRKKPRMGQQVLDNFFRSHISTDAHSLNSAAQ

Variants of: B1
Assay: 8OG:A repair function score (normalized; synonymous = 0, nonsense = -1) (normalized log-likelihood score); higher = more repair activity (WT-like)
Settings: with 8OG:A DNA repair reporter (GFP) in HEK-293 MUTYH KO cells
Procedure, shortened: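 With 10 pg/ml doxycycline, MUTYH knockout HEK-293 cells carrying lentiviral MUTYH cDNA NNN codon-scan libraries were co-transfected with mCherry and an 8OG:A GFP repair reporter. Viable mCherry+ cells were sorted into GFP+ (repair) and GFP− bins at 72 h, three replicates per tile, and tile amplicons were sequenced. Per-tile Rosace fitness scores were then normalized into a repair function score anchored on synonymous and nonsense distributions. Medians were fixed at 0 for synonymous and -1 for nonsense, excluding variants under 300 counts per million at the start.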

Variant	8OG:A repair function score
MRKPRAAVGSGHRKQAASQEGRQKHAKNNSQAKPSACDGLARQPEEVVLQASVSSYHLFRDVAEVTAFRGSLLSWYDQEKRDLPWRRRAEDEMDLDRRAYAVWVSEVMLQQTQVATVINYYTGWMQKWPTLQDLASASLEEVNQLWAGLGYYSRGRRLQEGARKVVEELGGHMPRTAETLQQLLPGVGRYTAGAIASIAFGQATGVVDGNVARVLCRVRAIGADPSSTLVSQQLWGLAQQLVDPARPGDFNQAAMELGATVCTPQRPLCSQCPVESLCRAMQRVEQEQLLASGSLSGSPDVEECAPNTGQCHLCLPPSEPWDQTLGVVNFPRKASRKPPREESSATCVLEQPGALGAQILLVQRPNSGLLAGLWEFPSVTWEPSEQLQRKALLQELQRWAGPLPATHLRHLGEVVHTFSHIKLTYQVYGLALEGQTPVTTVPPGARWLTQEEFHTAAVSTAMKKVFRVYQGQQPGTCMGSKRSQVSSPCSRKKPRMGQQVLDNFFRSHISTDAHSLNSAAQ [R281M]	-0.0676
MRKPRAAVGSGHRKQAASQEGRQKHAKNNSQAKPSACDGLARQPEEVVLQASVSSYHLFRDVAEVTAFRGSLLSWYDQEKRDLPWRRRAEDEMDLDRRAYAVWVSEVMLQQMQVATVINYYTGWMQKWPTLQDLASASLEEVNQLWAGLGYYSRGRRLQEGARKVVEELGGHMPRTAETLQQLLPGVGRYTAGAIASIAFGQATGVVDGNVARVLCRVRAIGADPSSTLVSQQLWGLAQQLVDPARPGDFNQAAMELGATVCTPQRPLCSQCPVESLCRARQRVEQEQLLASGSLSGSPDVEECAPNTGQCHLCLPPSEPWDQTLGVVNFPRKASRKPPREESSATCVLEQPGALGAQILLVQRPNSGLLAGLWEFPSVTWEPSEQLQRKALLQELQRWAGPLPATHLRHLGEVVHTFSHIKLTYQVYGLALEGQTPVTTVPPGARWLTQEEFHTAAVSTAMKKVFRVYQGQQPGTCMGSKRSQVSSPCSRKKPRMGQQVLDNFFRSHISTDAHSLNSAAQ [T112M]	-1.06
MRKPRAAVGSGHRKQAASQEGRQKHAKNNSQAKPSACDGLARQPEEVVLQASVSSYHLFRDVAEVTAFRGSLLSWYDQEKRDLPWRRRAEDEMDLDRRAYAVWVSEVMLQQTQVATVINYYTGWMQKWPTLQDLASASLEEVNQLWAGLGYYSRGRRLQEGARKVVEELGGHMPRTAETLQQLLPGVGRYTAGAIASIAFGQATGVVDGNVARVLCRVRAIGADPSSTLVSQQLWGLAQQLVDPARPGDFNQCAMELGATVCTPQRPLCSQCPVESLCRARQRVEQEQLLASGSLSGSPDVEECAPNTGQCHLCLPPSEPWDQTLGVVNFPRKASRKPPREESSATCVLEQPGALGAQILLVQRPNSGLLAGLWEFPSVTWEPSEQLQRKALLQELQRWAGPLPATHLRHLGEVVHTFSHIKLTYQVYGLALEGQTPVTTVPPGARWLTQEEFHTAAVSTAMKKVFRVYQGQQPGTCMGSKRSQVSSPCSRKKPRMGQQVLDNFFRSHISTDAHSLNSAAQ [A253C]	-0.853
MRKPRAAVGSGHRKQAASQEGRQKHAKNNSQAKPSACDGLARQPEEVVLQASVSSYHLFGDVAEVTAFRGSLLSWYDQEKRDLPWRRRAEDEMDLDRRAYAVWVSEVMLQQTQVATVINYYTGWMQKWPTLQDLASASLEEVNQLWAGLGYYSRGRRLQEGARKVVEELGGHMPRTAETLQQLLPGVGRYTAGAIASIAFGQATGVVDGNVARVLCRVRAIGADPSSTLVSQQLWGLAQQLVDPARPGDFNQAAMELGATVCTPQRPLCSQCPVESLCRARQRVEQEQLLASGSLSGSPDVEECAPNTGQCHLCLPPSEPWDQTLGVVNFPRKASRKPPREESSATCVLEQPGALGAQILLVQRPNSGLLAGLWEFPSVTWEPSEQLQRKALLQELQRWAGPLPATHLRHLGEVVHTFSHIKLTYQVYGLALEGQTPVTTVPPGARWLTQEEFHTAAVSTAMKKVFRVYQGQQPGTCMGSKRSQVSSPCSRKKPRMGQQVLDNFFRSHISTDAHSLNSAAQ [R60G]	-0.0378
MRKPRAAVGSGHRKQAASQEGRQKHAKNNSQAKPSACDGLARQPEEVVLQASVSSYHLFRDVAEVTAFRGSLLSWYDQEKRDLPWRRRAEDEMDLDRRAYAVWVSEVMLQQTQVATVINYYTGWMQKWPTLQDLASASLEEVNQLWAGLGYYSRGRRLQEGARKVNEELGGHMPRTAETLQQLLPGVGRYTAGAIASIAFGQATGVVDGNVARVLCRVRAIGADPSSTLVSQQLWGLAQQLVDPARPGDFNQAAMELGATVCTPQRPLCSQCPVESLCRARQRVEQEQLLASGSLSGSPDVEECAPNTGQCHLCLPPSEPWDQTLGVVNFPRKASRKPPREESSATCVLEQPGALGAQILLVQRPNSGLLAGLWEFPSVTWEPSEQLQRKALLQELQRWAGPLPATHLRHLGEVVHTFSHIKLTYQVYGLALEGQTPVTTVPPGARWLTQEEFHTAAVSTAMKKVFRVYQGQQPGTCMGSKRSQVSSPCSRKKPRMGQQVLDNFFRSHISTDAHSLNSAAQ [V166N]	-0.124
MRKPRAAVGSGHRKQAASQEGRQKHAKNNSQAKPSACDGLARQPEEVVLQASVSSYHLFRDVAEVTAFRGSLLSWYDQEKRDLPWRRRAEDEMDLDRRAYAVWVSEVMLQQTQVATVINYYTGWMQKWPTLQDLASASLEEVNQLWAGLGYYSRGRRLQEGARKVVEELGGHMPRTAETLQQLLPGVGRYTAGAIASIAFGQATGVVDGNVARVLCRVRAIGADPSSTLVSQQLWGLAQQLVDPARPGDFNQAAMELGATMCTPQRPLCSQCPVESLCRARQRVEQEQLLASGSLSGSPDVEECAPNTGQCHLCLPPSEPWDQTLGVVNFPRKASRKPPREESSATCVLEQPGALGAQILLVQRPNSGLLAGLWEFPSVTWEPSEQLQRKALLQELQRWAGPLPATHLRHLGEVVHTFSHIKLTYQVYGLALEGQTPVTTVPPGARWLTQEEFHTAAVSTAMKKVFRVYQGQQPGTCMGSKRSQVSSPCSRKKPRMGQQVLDNFFRSHISTDAHSLNSAAQ [V261M]	-0.124
